Data from a protein production outcome set (Wang et al. 2014).

Assay: label from the status in PepcDB records

Row | Sequence | protein production
1 | MPKGLMLTDLAIAGLLLIVAKVIRVHTPLLQRMYIPSAVLAGLFGLVFGPAMLDLLPWTDTFTANASLLTAALFSALGLATDVPSPKVVAQRAGSLWAFNQIASVSQWLFAAMFGLLLTTFFWPEINPGFGVTMSAGFMGGHGSASVVGDIFTGLGWEDGFTLGLTFATVGIFISISIGMLMLQFALKMGWIRSFTTFDSMDEHERKGLVKPTEQEPVMKDTMSSLSVDSFAIHAALVVVVTAFSYVAANYLSSFHDKVQIPTFVTGFLGGMLVRIVAKQTKASRYLCDGAFKHAAGISTDYLIIFGISAIKITVLAQYLAPMIVLAIGGIAFTLWLIFWVAPRIMGDDWFEKGIFSWGWLTGTVAMGIALLRIVDPKMRSKVLDDYAIAYVPGSITDIFIISLMPIAMYNGMEWQALGVGLAYIAVVLFIWRFVFKRSGQTVTDAS | failed
2 | MPKHEFSVDMTCGGCAEAVSRVLNKLGGVKYDIDLPNKKVCIESEHSMDTLLATLKKTGKTVSYLGLE | not failed
3 | MPKLPPLSLYIHIPWCVQKCPYCDFNSHAQKSDIPEQDYIYHLLQDLQADLQRFKDSIQQRKLHSIFIGGGTPSLFSAESIAYLLKEIKKQIDFEDNIEITLEANPGTVEAERFKGYVSAGIMRISMGIQSFNDDKLQRLGRIHNAAEAKSAVNLAKVSGLKSFNLDLMHGLPNQTLEEALDDLRQAIELSPPHISWYQLTIEPNTMFAYRPPKLPDDDALWDIFEQGHQLLTMAGYQQYETSAYAKAGFQCKHNLNYWRFGDYLAIGCGAHGKLTFPTGEITRFSKTKHPKGYLRGEYLYEEKNVPKIDRPFEFFMNRFRLLEAVPKQEFEDYTGLSQSAVKNQIDFAIQQNYIVENADSWQITEHGKLFLNELLELFLTEELEHHHHHH | not failed
4 | MPKPHETAVYTHGHHESVLRSHTWRTAENSAAYLLGSLRPHMRILDIGCGPGTITADLAERVPEGHVTGVDRSPEIVERARATAAARGLENTGFAVADVHALDYPDDTFCVVHAHQVLQHVGDPVRALREMRRVARPGGFIAVRDSDYGAMTWYPASSGMDDWLDLYHRVARANGGEPDAGRRLKAWALEAGFTDITATSATWTFTTPEEREWWSGLWADRTLASAYAERATEGGHATPERLRAVSAAWRDWGKHPESWFSVLHGEILCRKEA | failed
5 | MPKVEIAPSEIKIPDNVLKAKLGFGGAEEIPEEFRKTVNRAYEELLDAAKPVVLWRDFEVDGSLSFDDMRLTGELATKHLSGSKIITVFLATLGKKVDEKIEEYFRKGEDLLAFFIDGIASEMVEYALRKVDAELRMKRSNLEGSFRISPGYGDLPLSLNKKIAEIFKEEVDVNVIEDSYVLVPRKTITAFVGWREKNEKQT | not failed
6 | MPKVTVSIKVVPAVEDGRLHEVIDRAIEKISSWGMKYEVGPSNTTVEGEFEEIMDRVKELARYLEQFAKRFVLQLDIDYKAGGITIEEKVSKYR | not failed
7 | MPLIPAVPGLADRRMYVFLLLLTLGSGMSFQGWNTLYTNFAVHGAGLSGAENGLVQSIREVPGLLTFGVIPLLLLLREHRLAALAVLVTGVGVMTAGLLPTLWGVVATTLVMSFGFHYFEAVNQSLILQYFDVRTAPLVMGRLRGLAAGGNLVMGALVYVLADLFAFSTLFCIMGAFATVAGAWALTRDPSDPARPAQRRSMVLRRRYWLFYLLTILAGARRQIFTVFSVFLLVEHFGYGVREVALLFIVNNAVNWFLNPLIGRAVNRFGEQHLLTVEYSVLVLVFLGYTVTDSPLVAAFLYVVDHIFFNFAIAIRTFFQKIADPADIAPSMAMSVAINHIAAVVMPVCGGMLWMLDYRIPFYVGAGLAVASLLATQRIGAELRLQGVKPC | failed
8 | MPLKKLIEIGSADFSVSTTACVLQLSHREVPVRGKQSKVISGVLADETARLPFTAWVELPGIDIGSIIRIEGAQIRMFRGMPSINFLEHHHHHH | failed
9 | MPLPSLKDQFGALIAASSVSCTQPELDQTNRPVVDLLASWLGDLGFRCEIREVSPGKFNLLASYGSGPGGLVLAGHTDTVPYDEALWSSDPLRLDERDGRWYGLGSCDMKGFFPLAIEALLPLLDQPFRQPLMILATCDEESSMAGARALAESGRPLGRATVIGEPTNLRPIRLHKGVMMERIEILGQSGHSSDPNLGRSALEAMHATIGELMALRGEWQRAWNNPQFSVPQPTLNFGCIHGGDNPNRICGQCSLEFDLRPLPGMQPKQLREAIRQRLRPLAERHQVSIDYQPLFPAVPPFEQAQDSELVRVAERLTGHRAEAVAFGTEAPYFQRLGSETLVLGAGDIACAHQPDEHLELARIEPMVGVLRRLIQHYCLTPAAD | failed
10 | MPLPSSARALKKPRLDDEVRFLRSWIEKPLHMGAVMPSGKLLARTMAHYVDVNSDAPVVELGPGTGAITSALVERGVDQKRLVLVEYNPGFCALLRDRYPQAKVVQGDAYRLRDTLWNVLSAPASAVVSGLPLVTKPMLTRLRLIRDAFTALAPGAPFVQFTYAVVPPIPKSLPGVSTEASERIWMNLPPARVWVYRKD | failed
11 | MPLRFTTRRAEGGSARRPLSIVSCPLFCPSEPNQFSPMLFRQINDAKLAQYAYLIGCQETGEALLVDPERDIDRYLDLAEREGLEITAVTETHIHADFLSGARELAERFDTTLYLSDEGDENWKYEWAQGPKQGGGDYDVTWLHDGDTFQVGSVEVTALHTPGHTPEHLSFLVTDRGGGADEPMGLLTGDFVFVGDLGRPDLLESAAQVEGAMEPSARTLYTSVQRVLEMPDHLQVWPAHGAGSACGKALGAVPQSTLGYEKQFNPMIDAAREGEDAFVEAILADQPEPQIYFARMKRDNKEGMPVLGSLPAPRELTVRELEDAAADEAPLVIDTRLDRSAYMANHIPGSLYAPMNDTFNTVVGSLVEDETTPIVLIADEGDVEEAVRDLVRIGYDNVTGFAEIDTLQRYFQAGGPSETIDEITFADFDAELQDEATGVLDVRYRSEYEEGHVEGALNASYTRMPEYETELPTDKTLLVHCGSGARAAAASSYLARTGHSVKYVNDHFANYEAASEEAVAA | failed
12 | MPLTDTPPSVPQKPRRGRPRGAPDASLAHQSLIRAGLEHLTEKGYSSVGVDEILKAARVPKGSFYHYFRNKADFGLALIEAYDTYFARLLDQAFLDGSLAPLARLRLFTRMAEEGMARHGFRRGCLVGNLGQEMGALPDDFRAALIGVLETWQRRTAQLFREAQACGELSADHDPDALAEAFWIGWEGAILRAKLELRPDPLHSFTRTFGRHFVTRTQE | not failed
13 | MPLTNNSTTKPQEIAAIDLGSNSFHMVIARVVNGALQVLGRLKQRVHLADGLDSNNMLSEEAIERGLACLALFAERLQGFSPDNVCIVGTHTLRQAANAETFLKRAAEVIPYPIEIISGQEEARLIFMGVEHTQPEKGRKLVIDIGGGSTEMVIGEDFEPLLVESRRMGCVSFAQQFFPGGEISKNNFRRARLAAAQKLENLAWQYRIQGWQYALGASGTIKATYEVLVEMGEKDGLITPERLEMLVENVLQFKQFSALSLPGLSEDRQSVFVPGLAILCGVFDALAIKTLRLSDGALREGVLYEMEGRFRHQDIRQRTAKSLADHYNIDREQARRVLETTEQLYTQWLAQNTKLVQPQLEALLKWAAMLHEVGLSINHSGMHRHSAYILQNTNLPGFNQEQQTLLATLVRMHRKAIKLDELPRLNLFKKKYYLPLIQLLRLSTLLNNQRQSTTTPESLRLITDDSHWTLRFPHGYLTQNSLVQLDFEREQAYWDDVVGWKLVIEEEEPDEAAKVAPEE | not failed
14 | MPLVKRNIDPRHLCHTALPRGIKNELECVTNISLANIIRQLSSLSKYAEDIFGELFNEAHSFSFRVNSLQERVDRLSVSVTQLDPKEEELSLQDITMRKAFRSSTIQDQQLFDRKTLPIPLQETYDVCEQPPPLNILTPYRDDGKEGLKFYTNPSYFFDLW | failed
15 | MPLVTRNIEPRHLCRQTLPSVRSELECVTNITLANVIRQLGSLSKYAEDIFGELFTQANTFASRVSSLAERVDRLQVKVTQLDPKEEEVSLQGINTRKAFRSSTIQDQKLFDRNSLPVPVLETYNTCDTPPPLNNLTPYRDDGKEALKFYTDPSYFFDLWKEKMLQDTKDIMKEKRKHRKEKKDNPNRGNVNPRKIKTRKEEWEKMKMGQEFVESKEKLGTSGYPPTLVYQNGSIGCVENVDASSYPPPPQSDSASSPSPSFSEDNLPPPPAEFSYPVDNQRGSGLAGPKRSSVVSPSHPPPAPPLGSPPGPKPGFAPPPAPPPPPPPMIGIPPPPPPVGFGSPGTPPPPSPPSFPPHPDFAAPPPPPPPPAADYPTLPPPPLSQPTGGAPPPPPPPPPPGPPPPPFTGADGQPAIPPPLSDTTKPKSSLPAVSDARSDLLSAIRQGFQLRRVEEQREQEKRDVVGNDVATILSRRIAVEYSDSEDDSSEFDEDDWSD | not failed
16 | MPMDFQILDADYEVVNDSGPVIRLFGRGADGKSVCCFVPDFEPYFYLKASGDLHAVARLIKDTFEQVKKVEIVEKFEPVGYQKTKKEMLRVTTRLPKDVPEIRDEILKIRDVLRAEGDWQVYESDILFRNRFLIDRALGGMVWVSAEGKPVDPVRYLGAGSAWRSRCENFACDSAVLASGLKRVENLAIAPLKYLAFDIECLPLDGGMPSPDVSPIIMISFSFEPEYKGHKTLILLAKPAAGMDGDVLSCMDETEMLNKFFEIICEYDPDIVAGYNHQDFDIPYITERVKALVAKGETINSVVGRDGSPIGYRKFGLITRTEMKGRVVVDALPLVRRAFSLKQYTLRAVSKELLSREKLDVPPLEMEEHWNDSGDKFRKFVDYARRDSELALELVLELRLLDKYIALAQVSGSLLQEIVDGGQTSMVETLLLREFGLKDRVILPKPGDELSAERYDMSSDLKGGEVLEPKKGLLENVLILDYKSLYPTIMMAHNLCYTTVVTRDRPDGKTIKPPSGGEFVPPEVFRGIVPSILEDLLNKRGDTKKRMKRTSDENEHRVLDATQLAIKILLNSFYGYSGYARARLYSLTLANAVTSFGRSNILNTRDLINGRIGKIVLRNSAALLLEEAGKLSPQDRIVELSVAYGDTDSVFVHCKAKGDLSLEEVSLVGNRLSEIVSASLPDPMELEFESVAKRALLIAKKRYALWLFEPRNSGWENKIKVKGMETVRRDWCELTSITLNRVLEFVLIEGDVDKAVEHVRKVVSDVRNLDPGKDAGIIEKLVLTRTLTRKADSYKNKQPHLTVAENLKKRTGIMPSIGTRIPFVITAGKGLFVDRAEDPDYVRENNVPIDVDYYVKKQILPPVERILEVFGVKMSSLDFDAKQKGLFDFEVKKPEAKKQEKSSSQKGTNGKILEKAPEEKARYSENGRVEQRSLFDF | failed
17 | MPMKSWIKTLLITLLAAALCLLFARVVLPPLLVQLIPPSWEGGPWFWVNLLLAGFLAGLVVAPLLRTRRYYPVPLLLLLSVLVVVGNWAQNRCNDAQLQAIEQLERRSASHSNLGISNEEPAPSAPVDVSATPGVWAHEQGDGYGYSCNRPGETQGFLMPQLMSFGINVLGLLLALLIGPGRRRAR | failed
18 | MPNANEDNPSALSQVQRRAVSELLRVSPVADELARRFQEAGFSLALVGGSVRDALLGRLGNDLDFTTDARPEDVLKIVRPWADAMWEVGIAFGTVGAQKEGYQIEVTTYRSEAYDRTSRKPEVSYGDSIEEDLVRRDFTVNAMAVALPEKEFIDPHGGLDDLAARILRTPGTPEESFSDDPLRMMRAARFAAQLDFEVAPDVVTAMTEMAGRIDIVSAERVRDELNKLVLSAHPRKGLTLLVDTGLADHVLPELPALRLERDEHHRHKDVYDHSLIVLEQAIALEENGPDLTLRLAALLHDIGKPRTRRFEKDGRVSFHHHEVVGAKMTKKRMTALKYSNDLVKDVSRLVELHLRFHGYGTGEWTDSAVRRYVRDAGPLLDRLHKLTRSDCTTRNKRRAAALSRAYDGLEERIAQLQEQEELDAIRPDLDGNQIMEVLGVGPGPVIGQAYKFLLELRLENGPMEYDAAVAALKEWWAEQN | failed
19 | MPNELSRSLSPYLLMHANDPVEWRMWSKETLRIATEENRLIFLSIGYSSCHWCHVMHEESFVDPDVAEILNNNYIPVKVDREERPDLDSYFMKVSQVINGNGGWPLNIILLPDARPVFAMTYVPKEDRNGMTGLKTILIQLSQMYLKDPDQFKDQAKAVSDAMEERESV | not failed
